Each block holds one substance with its values, some of them ahead of it.
Assays:
[1] = target: SAV1 Y273E-WW12ex (mouse); assay: ITC
[2] = target: SAV1 WW12 (aa E198-A268) (mouse) (UniProt Q8VEB2); assay: ITC
[3] = target: SAV1 S245D-WW12ex (mouse); assay: SEC-MALS

Kd [1]: 3.8 µM
Substance: Dendrin PY23 (aa D222-G241) (from UniProt Q80TS7 222-241) (domain or fragment)

fold weakening of binding against WT dendrin PY23 [2]: 18 fold
Substance: Dendrin PY23 with the PPPY motif changed into PPDY (from UniProt Q80TS7 222-241) (domain or fragment)

stoichiometry N [3]: 2
Substance: SAV1 S245D-WW12ex (domain or fragment)
